Measured values as given in patent US20160060347A1 (MorphoSys, published 2016).

What was measured:
[1] = target: T1, hu_CXCR2_N-term (1-17)-BSA (human; bovine, coupled to carrier protein BSA; C-terminal cysteine introduced to enable coupling); test: ELISA, coated peptide-BSA, IgG1
T1 construct: Synthetic linear peptide chemically coupled to the carrier; also called CXCR2_aa1-17_BSA; CXCR2 aa1-17 BSA
Procedure: (§1) 384-well Maxisorp plates (Nunc; Cat. #460518) were coated with respective CXCR2 and control peptides coupled either to BSA or Transferrin (TRF) at 1-5 μg/mL and incubated o/n at 4° C. […] After three washing steps, antibodies were added at 5-10 μg/mL and titrated in some experiments. Antibodies were incubated 1 h at room temperature and plates were subsequently washed. Binding of anti-CXCR2 antibodies was detected by using alkaline phosphatase-conjugated anti-human IgG, (Dianova, Cat #109-055-097). AttoPhos fluorescence substrate (Roche, Cat #1484281) was added according to instructions of the manufacturer and fluorescence was measured (excitation at 430 nm, emission at 535 nm) using a microplate reader.

[2] = target: T2, N-terminal peptide aa1-48, BSA-coupled (human; bovine, coupled to carrier protein BSA; C-terminal cysteine introduced to enable coupling); test: ELISA, coated peptide-BSA, IgG1
T2 construct: also called CXCR2 aa1-48 BSA
Procedure: as §1

[3] = target: T3, ECL3 peptide aa273-295, BSA-coupled (human; bovine, coupled to carrier protein BSA; C-terminal cysteine introduced to enable coupling); test: ELISA, coated peptide-BSA, IgG1
T3 construct: also called CXCR2 aa273-295 BSA; peptides representing the extracellular domain 3
Procedure: as §1

[4] = target: T4, human CXCR2 (human, UniProt P25025 1-360); test: FACS, CXCR2 CHO Flp-In cells, IgG1
T4 construct: Expressed on Flp-In CHO cells (FACS, Fab-ZAP, ADCC, CDC) or on bought PathHunter CHO cells (beta-arrestin assay); the construct in the PathHunter cells is not described; also called chemokine receptor CXCR2; CXCR2 CHO Flp-In cells
T4 sequence: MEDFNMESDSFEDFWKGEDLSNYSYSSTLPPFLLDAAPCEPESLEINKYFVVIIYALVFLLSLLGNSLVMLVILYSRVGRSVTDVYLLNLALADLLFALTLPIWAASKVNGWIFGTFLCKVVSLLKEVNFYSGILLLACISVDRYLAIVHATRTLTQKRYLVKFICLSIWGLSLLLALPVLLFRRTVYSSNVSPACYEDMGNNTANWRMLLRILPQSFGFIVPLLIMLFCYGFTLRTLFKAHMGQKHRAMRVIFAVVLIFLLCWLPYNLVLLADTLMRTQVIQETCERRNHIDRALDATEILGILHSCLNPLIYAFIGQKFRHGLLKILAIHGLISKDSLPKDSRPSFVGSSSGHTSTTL
Procedure: (§2) Human CXCR2-expressing Flp-In™ CHO cells were harvested at ˜80% confluence washed once with PBS (Gibco, Cat #14190-094) and detached using Versene (Invitrogen, Cat #15040-033). Subsequently, cells were counted and centrifuged at 250×g for 5 min at 4° C. Afterwards, cells were diluted in Superblock (Thermo Fisher Perbio Science, Cat #37515) to a cell concentration of 2E+05-1E+06/mL and 100 μL/well were transferred to 96-well microtiter plate (Nunc, Cat#163320). Cells were once centrifuged, supernatant discarded and antibodies added at 1 μg/mL (unless stated otherwise), incubated for 1 h at 4° C. and washed twice with FACS buffer (PBS/3% FCS/0.02% NaN3). Binding of anti-CXCR2 antibodies was detected by incubation of Phycoerythrin-conjugated anti-human IgG (Dianova, Cat #109-116-097) for 1 h at 4° C. Samples were subsequently measured using FACS Array (Becton Dickinson).

[5] = target: T1, hu_CXCR2_N-term (1-17)-BSA; test: ELISA, coated peptide-BSA, IgG
Procedure: as §1

[6] = target: T2, N-terminal peptide aa1-48, BSA-coupled; test: ELISA, coated peptide-BSA, IgG
Procedure: as §1

[7] = target: T3, ECL3 peptide aa273-295, BSA-coupled; test: ELISA, coated peptide-BSA, IgG
Procedure: as §1
Target sequence in this assay (peptide, as listed by the source limits assumed, chain 1 of 2): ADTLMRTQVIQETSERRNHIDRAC
Target sequence in this assay (P02769 25-607 limits assumed, chain 2 of 2): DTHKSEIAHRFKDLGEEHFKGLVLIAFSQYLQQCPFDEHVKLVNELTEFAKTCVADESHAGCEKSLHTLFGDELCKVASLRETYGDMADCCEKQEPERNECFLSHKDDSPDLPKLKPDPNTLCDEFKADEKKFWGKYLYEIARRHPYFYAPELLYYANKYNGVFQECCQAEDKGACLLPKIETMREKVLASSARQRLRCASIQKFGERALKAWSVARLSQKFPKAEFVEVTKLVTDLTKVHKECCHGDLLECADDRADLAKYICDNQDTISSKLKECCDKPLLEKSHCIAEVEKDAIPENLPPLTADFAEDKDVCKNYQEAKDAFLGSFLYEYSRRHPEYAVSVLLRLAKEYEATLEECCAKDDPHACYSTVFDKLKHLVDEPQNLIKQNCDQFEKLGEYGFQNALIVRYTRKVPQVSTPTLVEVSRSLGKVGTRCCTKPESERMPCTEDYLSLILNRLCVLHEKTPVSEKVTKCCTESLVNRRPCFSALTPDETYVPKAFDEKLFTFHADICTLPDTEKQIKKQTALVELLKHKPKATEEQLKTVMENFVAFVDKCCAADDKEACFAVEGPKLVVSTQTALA

[8] = target: T4, human CXCR2; test: FACS, CXCR2 CHO Flp-In cells, IgG
Procedure: as §2

Measured: binding result

T1 sequence (P02769 25-607 limits assumed): as the sequence (P02769 25-607 limits assumed, chain 2 of 2) above
T2 sequence (P02769 25-607 limits assumed): as the sequence (P02769 25-607 limits assumed, chain 2 of 2) above

B1: CX2-Mab #1.5 (antibody, IgG1, V domains shown)
VH: QVQLVQSGAEVKKPGSSVKVSCKASGGTFSSYAISWVRQAPGQGLEWMGGIIPIVGEAKYAQKFQGRVTITADESTSTAYMELSSLRSEDTAVYYCARDSSGYDGYYAFAYWGQGTQVTVSS
VL: DIVLTQPPSVSGAPGQRGTISCSGSSSNIGSSSVNWYQQLPGTAPKLLIYRNNQRPSGVPDRFSGSKSGTSASLAITGLQAEDEADYYCASTDSQWRQIVFGGGTKLTVLG
binds: [1] | [2] | [3] | [4]

B2: CX2-Mab #1.2 (antibody, IgG1, V domains shown)
VH: QVQLVQSGAEVKKPGSSVKVSCKASGGTFSSYAISWVRQAPGQGLEWMGGIIPIVGEAKYAQKFQGRVTITADESTSTAYMELSSLRSEDTAVYYCARDSSGYDGYYAFAYWGQGTQVTVSS
VL: DIVLTQPPSVSGAPGQRGTISCSGSSSNIGSSSVNWYQQLPGTAPKLLIYRNNQRPSGVPDRFSGSKSGTSASLAITGLQAEDEADYYCATADQRGIVFGGGTKLTVLG
binds: [1] | [2] | [3] | [4]

B3: CX2-Mab #7 (antibody, IgG1, V domains shown)
VH: QVQLLESGGGLVQPGGSLRLSCAASGFTFSRYWMSWVRQAPGKGLEWVSVISYSGSETYYADSVKGRFTISRDNSKNTLYLQMNSLRAEDTAVYYCARGRAYGYFDPWGQGTLVTVSS
VL: DIVLTQPPSVSGAPGQRVTISCSGSSSNIGKKTVSWYQQLPGTAPKLLIYRNNQRPSGVPDRFSGSKSGTSASLAITGLQAEDEADYYCQSTDSTTEIVFGGGTKLTVLG
binds: [5] | [6] | [7] | [8]

B4: CX2-Mab #8 (antibody, IgG1, V domains shown)
VH: QVQLVQSGAEVKKPGESLKISCKGSGYSFTNYWIAWVRQMPGKGLEWMGIIDPSNSDTRYSPSFQGQVTISADKSISTAYLQWSSLKASDTAMYYCARGRYYGFFDYWGQGTLVTVSS
VL: DIVLTQPPSVSGAPGQRVTISCSGSSSNIGSTYVSWYQQLPGTAPKLLIYRNNNRPSGVPDRFSGSKSGTSASLAITGLQAEDEADYYCQVRALGTSSVVFGGGTKLTVLG
binds: [5] | [6] | [7] | [8]
